Assay results taken from the supplement of paper PMC10126150.
± gives the standard deviation of the averaged measurements.

Test system: ATP
Assay: switch fluorescence ratio, 500 uM ATP over buffer (Cy3 cluster intensity, sum of 5 cycles each) (fold (ratio)); higher = stronger signal-on switching upon ATP binding; sequences stand for … in TCGTCGGCAGCGTCAGATGTGTATAAGAGACAGTTTTTTTTTTTTTTTTTTTTTTTTT…TC
Conditions: aptamer strand: ATP DNA aptamer (quencher-CACCTGGGGGAGTATTGCGGAGGAAGG + anchor), 100 nM annealed; ATP concentration: 500 uM
In short: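 Switching-strand clusters labelled with Cy3 on a modified Illumina MiSeq flow-cell were annealed to 100 nM quencher-labelled ATP aptamer, imaged in selection buffer, and re-imaged after 15 min with 500 uM ATP at 22 °C. This was done over five cycles with NaOH stripping and re-annealing in between. The fluorescence ratio is summed target-cycle over summed buffer-cycle Cy3 intensity per cluster, averaged per switch-domain sequence, excluding clusters outside 100-1000 RFU.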
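Note: ATP exposure 15 min at 22 °C before imaging.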

Sequence | switch fluorescence ratio
ATGCACCTCG | 1.025 ± 0.006
TTGTGGGGGG | 0.989 ± 0.036
TTCTCGAGTT | 0.992 ± 0.013
GAAATAATGT | 1.03 ± 0.055
GGATATGGGG | 0.99 ± 0.012
GAATTATTTT | 1.12 ± 0.16
TTTTCCGGCC | 1.72 ± 0.54
GAGGGTTGGG | 1.06 ± 0.045
TAATCAGTGC | 0.998 ± 0.068
GGGGGACAGC | 0.992 ± 0.023
TTTGGAAAGC | 1.04 ± 0.019
GGTGTATGGT | 0.985 ± 0.018
TAGACGGGCA | 1.01 ± 0.015
AGGATAGGGG | 0.991 ± 0.026
CACCGTTTTC | 1.1 ± 0.028
CGTTACGGGA | 1.02 ± 0.057
TGAGCGGGAG | 1.0564 ± 0.00029
ATGGCAGGTA | 0.992 ± 0.033
ATGTCGACAG | 1 ± 0.043
TAAAGGGGCT | 1.04 ± 0.049
TTATTGCGCT | 0.994 ± 0.013
GAGGAGAACG | 0.949 ± 0.049
TACTTTTCGT | 0.995 ± 0.024
TTTGGATTTG | 1.03 ± 0.027
CAGTTCATGA | 1.01 ± 0.027

Sequence | switch fluorescence ratio
TTTGCCCCTT | 1.02 ± 0.03
TTATCATCTA | 1.02 ± 0.013
GAATGGAGCC | 0.995 ± 0.022
CAGGGCCTGT | 1.01 ± 0.028
CTGGGGTTGT | 1.02 ± 0.012
AGGGGGTATT | 1.01 ± 0.024
GTTTGTACGA | 0.97621 ± 0.0002
ATATGGGTGG | 1.01 ± 0.016
TTTTAACACT | 1.035 ± 0.0085
TGTGAGGTTC | 0.9675 ± 0.0075
CAGGATGGGC | 0.977 ± 0.027
ATGAGAAGTT | 1.01 ± 0.007
CTACAATGTA | 1.01 ± 0.021
ATTCAGACCT | 1.39 ± 0.019
GAATGGGGTA | 1.011 ± 0.0057
TTTTGGACTC | 1.007 ± 0.006
TTTTCGTCAA | 2.86 ± 2.4
GGGGCGGCCC | 1.03 ± 0.049
CTAATAGTGC | 1.016 ± 0.0021
GGTTTTATTT | 0.984 ± 0.068
CGGTTGAGTA | 0.9982 ± 0.0043
AAAGTGGTTC | 1.04 ± 0.053
CCGGTGTGCC | 1.01 ± 0.052
CAAAGGGGGA | 1 ± 0.033
GATGATGTTC | 0.9439 ± 0.0072

Sequence | switch fluorescence ratio
TGCAGGCAAG | 1.01 ± 0.024
CATCAAGGCA | 1.01 ± 0.019
TCCTGTTTTT | 1.01 ± 0.056
CAAGTGAGGG | 1.04 ± 0.015
ATAGTGAGTT | 1 ± 0.016
AGAAGATCTA | 0.9942 ± 0.0081
AAACATACCT | 1.4 ± 0.078
AGGGGCTTTA | 1.14 ± 0.2
AACAAATGAT | 1.007 ± 0.0024
ACAGGGGGCC | 1.08 ± 0.12
ATAGGTTTGG | 0.97 ± 0.014
TATAGCGCTT | 0.9905 ± 0.0035
GGGCCGTGGG | 0.992 ± 0.017
TCACGGTGCT | 1.15 ± 0.19
CGATGTAGGC | 1.05 ± 0.088
TTGTTTGGTG | 0.932 ± 0.014
TAACTGGCTT | 1.01 ± 0.036
GGGATTTTCT | 1.011 ± 0.0091
GGGGATAGAA | 0.982 ± 0.014
TACAGTCTGG | 1.007 ± 0.0066
ACCTTGATTG | 1.01 ± 0.018
AATAATCAAA | 1.01 ± 0.006
GTAGGGCGTA | 0.9635 ± 0.0073
AAAATACATT | 0.993 ± 0.039
TTCGAGTTGG | 0.9772 ± 0.0027

Sequence | switch fluorescence ratio
GGGTTAACCT | 1.06 ± 0.075
TTAAGCAACA | 1.13 ± 0.018
AAGATCACTG | 1.06 ± 0.068
TATATGAGAC | 1.003 ± 0.0083
GGATTGATGT | 0.972 ± 0.011
ATCCGGGTTC | 1 ± 0.015
TTGCGTATTT | 0.993 ± 0.033
CGGTTTAAGT | 0.993 ± 0.028
GGCATATCGT | 0.949 ± 0.041
GCGGTAACGT | 0.9765 ± 0.0069
GAACGCTTGG | 1.05 ± 0.023
CTCCTTAGTT | 1.05 ± 0.035
TGGGTTAATG | 0.9912 ± 0.0069
TTTCTTCGGG | 1 ± 0.019
GGGTTGTGTT | 0.978 ± 0.013
CTAAAGTGTG | 0.9858 ± 0.0098
TTTTGGGCAT | 1.04 ± 0.11
TTTGAACGGG | 1.01 ± 0.036
GTTTGGGGCT | 0.989 ± 0.019
CTCGTAAACG | 1 ± 0.02
TTTGCTCACG | 1.01 ± 0.029
ACAGGGGGGA | 1.05 ± 0.046
ACCCGGCTCC | 1.23 ± 0.045
TAGTGGCCTG | 0.955 ± 0.023
CGGAAAAAGT | 0.97 ± 0.013

Sequence | switch fluorescence ratio
TTAGCCGGGT | 0.9802 ± 0.0028
ACGCAGTTCT | 1.061 ± 0.008
TTGACACTCG | 0.98 ± 0.021
GTTGGACCAA | 1.021 ± 0.0027
AGGGTACTGT | 1.05 ± 0.092
TATGTGGGGT | 0.992 ± 0.026
GTTTCGGGGG | 0.9895 ± 0.006
AAACACTAAG | 1.08 ± 0.016
TAGAATCCGG | 0.979 ± 0.011
CGATTATTTC | 0.983 ± 0.0096
TGCGATTGGT | 1.01 ± 0.012
ACTGATGGAC | 1.06 ± 0.027
TTTAGGTAAT | 1.016 ± 0.0074
GCAGGGTAGC | 1.04 ± 0.012
CCATTTTTTT | 0.997 ± 0.042
AGGCTCTTAT | 1.03 ± 0.049
TGGGAAATTA | 0.999 ± 0.024
TGGTCTTTTT | 0.995 ± 0.037
TCGGACGTGC | 1.35 ± 0.1
TCGATGGGTG | 1.01 ± 0.032
TCTGGGGGGG | 0.99 ± 0.052
CCTGGGAGTG | 0.999 ± 0.035
TTCTACTGGG | 1.01 ± 0.028
TATTGCTCAC | 1.04 ± 0.02
ATGTCAGAGA | 1.02 ± 0.037

Sequence | switch fluorescence ratio
TTTTTTGTAG | 1.01 ± 0.016
GGGGGCTAAA | 1.02 ± 0.017
CAGTTGATGC | 1.01 ± 0.096
TGATGTATCA | 1.01 ± 0.08
CGGGTGTAGT | 1.03 ± 0.024
TTGGGGTTCT | 1.04 ± 0.033
CGTATAGTTT | 0.9865 ± 0.0096
AAGGTAGCTT | 1.011 ± 0.0094
GGTCGCAGGG | 1 ± 0.026
TTACCGGGAG | 1.05 ± 0.013
TCTTATCGTT | 0.964 ± 0.019
CCGTTGGTAA | 1.345 ± 0.0022
TTTGTGTGGG | 1.03 ± 0.03
CGAATTAATT | 0.96152 ± 0.00065
TAGGCTTTAG | 1.01 ± 0.012
TTTTGAAGTA | 1.0186 ± 0.00093
GGCTTTGGCG | 1.01 ± 0.015
AAGAGGCATG | 0.971 ± 0.07
CTATATTAGT | 1 ± 0.045
TATTTGGTGA | 0.993 ± 0.025
TCCAAGGGGG | 1.024 ± 0.0066
TATCTGGGGT | 1.02 ± 0.025
GCCGTACCTG | 1.041 ± 0.00042
GGGATCGTAC | 1.07 ± 0.041
CATTTGCTCT | 1 ± 0.013

Sequence | switch fluorescence ratio
GATGGATTTG | 1.02 ± 0.033
TGACTTAGTT | 0.999 ± 0.051
AAGTTATTGT | 1.21 ± 0.33
CGACTACCTT | 1.21 ± 0.016
AACAGGTACT | 1.074 ± 0.0094
GTAGTTCGCC | 1.02 ± 0.023
AGGGGACGAC | 1.02 ± 0.027
CGTGGGCTGT | 0.9817 ± 0.0074
TAGATGTTGA | 0.973 ± 0.036
GTCGGTTGTG | 0.974 ± 0.055
AGGGTCTGTT | 0.978 ± 0.012
GAGATGTAGG | 1 ± 0.014
CTAGATGTTG | 0.977 ± 0.0027
TTACGGCCAA | 1.26 ± 0.31
TTAGCGAGGT | 1.02 ± 0.032
ATGCATTTTA | 0.999 ± 0.045
AAAGAAAGTC | 1.043 ± 0.006
TGGGTCTCTA | 1 ± 0.018
TTTTACCGT | 0.996 ± 0.012
ACTTAGTCTA | 1.023 ± 0.0066
CGAAAACGGT | 0.999 ± 0.048
ACGGCATCAT | 1.076 ± 0.0017
TATTACTTGC | 1.03 ± 0.042
TATTTGTTCT | 1 ± 0.024
TTAGTTGTTT | 0.964 ± 0.023

Sequence | switch fluorescence ratio
AGGATGGAGT | 0.987 ± 0.031
GTATTCATTT | 0.982 ± 0.036
TGTAACGGGA | 1.01 ± 0.018
GGCGTATATG | 0.973 ± 0.027
GCCGGAAAAC | 2.35 ± 0.2
TTCCTGGAC | 1.7 ± 0.39
GTGGGGGTAA | 0.9692 ± 0.0039
AAGGACATTA | 1.042 ± 0.0014
TCGACGTTTG | 1.01 ± 0.011
GGGGGAAAAG | 1.03 ± 0.1
CATAACCGGT | 1.01 ± 0.027
TGCCTGCGGA | 1.001 ± 0.005
TACAAGGGTG | 1.1 ± 0.03
AGGGTTAGGT | 1.003 ± 0.0028
ACATAGCTGG | 1.01 ± 0.029
ATACAAGGGG | 1.03 ± 0.033
CTTGAGTGTT | 0.996 ± 0.011
AGTTGAGAGG | 0.972 ± 0.0088
GAGTTGGGTC | 1.02 ± 0.021
GGTCCATGGG | 0.967 ± 0.035
GTTAAAAGGC | 0.986 ± 0.023
GTAAGCCCGC | 1 ± 0.053
TTACATAGTA | 1.06 ± 0.071
TGGATGTCGT | 1.008 ± 0.0094
AGAATATTAA | 0.978 ± 0.013
